Data reported in the Immune Epitope Database (IEDB).

Tests used:
Assay in all cases: IEDB peptide-MHC binding, purified MHC/competitive/radioactivity; filed as Kd, often an IC50 or EC50 that approximates it; ≥ and ≤ were set here for values at or beyond the usual limits of such assays
HLA-A*03:01 = target: HLA-A*03:01
HLA-A*68:01 = target: HLA-A*68:01
HLA-A*31:01 = target: HLA-A*31:01
HLA-A*11:01 = target: HLA-A*11:01
HLA-A*33:01 = target: HLA-A*33:01
[1] = source organism: Dengue virus 1 Brazil/97-11/1997
[2] = source organism: Vaccinia virus WR
[3] = source organism: SARS coronavirus Tor2
[4] = source organism: Mammarenavirus lassaense

Sequence: FLSGKGLGK
- Kd (HLA-A*03:01; [1]): 6.26 nM

Sequence: FMTLVPVLEK
- Kd (HLA-A*68:01; [2]): 2 nM
- Kd (HLA-A*31:01; [2]): 73.3 nM
- Kd (HLA-A*11:01; [2]): 3.96 nM
- Kd (HLA-A*33:01; [2]): 20 nM
- Kd (HLA-A*03:01; [2]): 82.6 nM

Sequence: FSPENKAFK
- Kd (HLA-A*68:01; [2]): 133 nM
- Kd (HLA-A*31:01; [2]): 6710 nM
- Kd (HLA-A*11:01; [2]): 5020 nM
- Kd (HLA-A*33:01; [2]): 3920 nM
- Kd (HLA-A*03:01; [2]): 6250 nM

Sequence: GLFDFVNFVK
- Kd (HLA-A*68:01; [2]): 7.36 nM
- Kd (HLA-A*31:01; [2]): 66.1 nM
- Kd (HLA-A*11:01; [2]): 0.911 nM
- Kd (HLA-A*33:01; [2]): 1200 nM
- Kd (HLA-A*03:01; [2]): 0.324 nM

Sequence: GMMVLKIVR
- Kd (HLA-A*31:01; source organism: Dengue virus 2 Jamaica/1409/1983): 11.3 nM

Sequence: GMSYYCKSHK
- Kd (HLA-A*68:01; [3]): 1370 nM
- Kd (HLA-A*31:01; [3]): 111 nM
- Kd (HLA-A*11:01; [3]): 91.3 nM
- Kd (HLA-A*33:01; [3]): 9960 nM
- Kd (HLA-A*03:01; [3]): 20 nM

Sequence: GQRCHFIKK
- Kd (HLA-A*68:01; [2]): ≥ 25000 nM
- Kd (HLA-A*31:01; [2]): 62 nM
- Kd (HLA-A*11:01; [2]): 13.4 nM
- Kd (HLA-A*33:01; [2]): 13200 nM
- Kd (HLA-A*03:01; [2]): 21.4 nM

Sequence: GTIAGGVCY
- Kd (HLA-A*68:01; [2]): 7900 nM
- Kd (HLA-A*31:01; [2]): ≥ 62600 nM
- Kd (HLA-A*11:01; [2]): 69.7 nM
- Kd (HLA-A*33:01; [2]): ≥ 77700 nM
- Kd (HLA-A*03:01; [2]): 4070 nM

Sequence: GVEDTESIER
- Kd (HLA-A*68:01; [2]): 1840 nM
- Kd (HLA-A*31:01; [2]): 1930 nM
- Kd (HLA-A*11:01; [2]): 948 nM
- Kd (HLA-A*33:01; [2]): 673 nM
- Kd (HLA-A*03:01; [2]): ≥ 70100 nM

Sequence: HAIGTSITQK
- Kd (HLA-A*68:01; [1]): 34.5 nM

Sequence: HLKCKVRMEK
- Kd (HLA-A*03:01; source organism: Dengue virus 4 Philippines/H241/1956): 55.4 nM

Sequence: HSYAGDAAEH
- Kd (HLA-A*68:01; [4]): 578 nM
- Kd (HLA-A*31:01; [4]): 2960 nM
- Kd (HLA-A*11:01; [4]): 17700 nM
- Kd (HLA-A*33:01; [4]): ≥ 48000 nM
- Kd (HLA-A*03:01; [4]): 1480 nM

Sequence: IFYFISIYSR
- Kd (HLA-A*68:01; [2]): 38.9 nM
- Kd (HLA-A*31:01; [2]): 2.39 nM
- Kd (HLA-A*11:01; [2]): 4180 nM
- Kd (HLA-A*33:01; [2]): 76.2 nM
- Kd (HLA-A*03:01; [2]): 175 nM

Sequence: IMDLHPGSGK
- Kd (HLA-A*03:01; [1]): 60.1 nM

Sequence: IMVASDVCKK
- Kd (HLA-A*68:01; [2]): 74.4 nM
- Kd (HLA-A*31:01; [2]): 270 nM
- Kd (HLA-A*11:01; [2]): 53.3 nM
- Kd (HLA-A*33:01; [2]): 7130 nM
- Kd (HLA-A*03:01; [2]): 16.9 nM

Sequence: ISEKETLNEY
- Kd (HLA-A*68:01; [2]): ≥ 35000 nM
- Kd (HLA-A*31:01; [2]): ≥ 45800 nM
- Kd (HLA-A*11:01; [2]): 3000 nM
- Kd (HLA-A*33:01; [2]): ≥ 55600 nM
- Kd (HLA-A*03:01; [2]): ≥ 70100 nM

Sequence: ISLNSMYTR
- Kd (HLA-A*68:01; [2]): 13.3 nM
- Kd (HLA-A*31:01; [2]): 4.62 nM
- Kd (HLA-A*11:01; [2]): 37.4 nM
- Kd (HLA-A*33:01; [2]): 85.6 nM
- Kd (HLA-A*03:01; [2]): 6100 nM

Sequence: ISQGAGWSLR
- Kd (HLA-A*31:01; source organism: Dengue virus 3 Martinique/1243/1999): 8.62 nM

Sequence: ISSVQLSNNK
- Kd (HLA-A*68:01; [2]): 1280 nM
- Kd (HLA-A*31:01; [2]): 4420 nM
- Kd (HLA-A*11:01; [2]): 121 nM
- Kd (HLA-A*33:01; [2]): 3000 nM
- Kd (HLA-A*03:01; [2]): 943 nM

Sequence: IVFVCVEYY
- Kd (HLA-A*68:01; [3]): 23 nM
- Kd (HLA-A*31:01; [3]): 112 nM
- Kd (HLA-A*11:01; [3]): 41 nM
- Kd (HLA-A*33:01; [3]): 844 nM
- Kd (HLA-A*03:01; [3]): 49.7 nM

Sequence: IVNAANIHLK
- Kd (HLA-A*68:01; [3]): 66.5 nM
- Kd (HLA-A*31:01; [3]): 2230 nM
- Kd (HLA-A*11:01; [3]): 104 nM
- Kd (HLA-A*33:01; [3]): ≥ 70000 nM
- Kd (HLA-A*03:01; [3]): 51.1 nM
